Where two headings read alike, the source gives them in different places.

Series [1] deals with T1, SRSF3 (SRp20), recombinant (UniProt P84103 1-164).
T1 sequence: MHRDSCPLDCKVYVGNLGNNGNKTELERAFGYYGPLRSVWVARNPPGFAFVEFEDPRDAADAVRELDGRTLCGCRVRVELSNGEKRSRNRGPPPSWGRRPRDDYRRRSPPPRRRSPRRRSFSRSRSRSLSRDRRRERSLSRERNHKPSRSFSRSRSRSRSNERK
Kind of series: pull-down.

Series [2] deals with T1, SRSF3 (SRp20), recombinant. Kind of series: pull-down. The source holds these as a separate data set.

B1: CPEB2 exon 4 WT RNA, biotinylated (ssRNA)
RNA: GUGAGAUCUAGUUUGCAGUUGCCAGCUUGGGGCUCAGAUUCACUCCAAGAUAGUUGGUGCACUGCAGCCGGAACAUCCAGAAUAGACCAG
Consider B1, for which the binding result in series [1] was “binds”.

B2: CPEB2 exon 4 MUT RNA (CAUCC to GAGUC), biotinylated (ssRNA)
RNA: GUGAGAUCUAGUUUGCAGUUGCCAGCUUGGGGCUCAGAUUCACUCCAAGAUAGUUGGUGCACUGCAGCCGGAAGAGUCAGAAUAGACCAG
Regarding B2, in series [2], the binding result is reported as “no binding”.

Source of the values: PMC6726571.
